According to patent publication US7341992B2, “Lectin-like domain of thrombomodulin and its therapeutic use” (Vlaams Interuniversitair Instituut Voor Biotechnologie VZW, priority 2001, dated 2008):
Entries after “also recorded” stand apart in the source; their conditions may differ.

B1: TMlec155: Recombinant first 155 amino acids of murine TM, restricted to the lectin-like region, polyhistidine-tagged, expressed in Pichia pastoris (protein)
chain: LSALAKLQPTGSQCVEHECFALFQGPATFLDASQACQRLQGHLMTVRSSVAADVISLLLSQSSMDLGPWIGLQLPQGCDDPVHLGPLRGFQWVTGDNHTSYSRWARPNDQTAPLCGPLCVTVSTATEAAPGEPAWEEKPCETETQGFLCEFYFTA
modifications: left off: small tags and cut ends
notes: Recombinant first 155 amino acids of murine TM, restricted to the lectin-like region, polyhistidine-tagged, expressed in Pichia pastoris

How the values were obtained:
[1] = test system: TM^wt/wt endothelial cells; assay: Static adhesion assay: murine PMNs on endothelial cells from TM^wt/wt mice; assay type: cell-based; conditions: addition of PPACK to exclude thrombin effect
Text: Table 8: Static adhesion assay. […] This is a representative experiment performed 3 times, on 3 different clones each. For each experiment, 5 wells were used for each condition, and adherent leukocytes in 15 microscopic fields were counted.
Since TM expression is not restricted to vascular endothelial cells, but is also synthesized by other cells including neutrophils and monocytes, we considered the possibility that the increase in leukocyte efflux into the lungs might be a result of TM alterations on either the neutrophils and/or the vascular endothelium. fEND.5 cells are an established PymT transformed murine endothelial cell line that expresses full-length, functional TM on the cell surface. […] Adhesion and rolling of neutrophils to transformed endothelial cells derived from the TM^wt/wt and TM^LeD/LeD mice were consequently evaluated. […] This was determined not to be an endothelial cell clone-specific artifact, as 3 different clones of endothelial cells were evaluated with similar results. There was also a significant 3-fold increase in PMN and lymphocyte adhesion to resting TM^LeD/LeD endothelial cells as compared to TM^wt/wt endothelial cells (Table 8). […]
Neutrophils and lymphocytes were isolated from bone marrow according to the method of Lowell and Berton ^35. Each population was assessed to be over 95% pure by microscopic analysis after Wright staining. […]

HUVECs = assay: Rescue of HUVECs from serum starvation-induced cell death; assay type: cell-based, human; conditions: 3 days of serum deprivation
Protocol: Because endothelial cell death is a pathway of sustained tissue damage, we evaluated whether TMlec155 was capable of rescuing HUVECs from serum starvation-induced cell death. After 3 days of serum deprivation, over 95% of HUVECs died. Serum starvation with the addition of TMlec155 at concentrations of 1, 10 and 20 μg/ml rescued 2±0.6%, 18±7% and 34±14% of the cells (p=0.69, p<0.05, p<0.05, respectively compared with serum-starved controls), showing that soluble TM rnay also have pro-survival properties.

IL-1β = assay: Cytokine response in vivo after LPS i.p. in wild-type mice; conditions: LPS 20 μg/gm i.p.
Protocol: Table 10: Effect of recombinant TMlec155 on cytokine response in vivo. Wild-type mice were treated with LPS 20 μg/gm i.p., following 5 min later with the noted treatment. Plasma levels of IL-1b were measured 3 hours later
Constitutive levels of circulating soluble TM, composed of proteolytic components of the extracellular domains, are found in the plasma of normal individuals, while quantitative changes occur in different disease states. Purified recombinant TMlec155 was prepared using the Pichia pastoris expression system, and further purified by a series of chromatographic steps as detailed in the methods. In a static adhesion assay on TM^Led/Led endothelial cells, PMNs were co-incubated with TMlec155 at two concentrations. […] After a further 3 hours, the serum cytokine response was determined.
Double antibody sandwich ELISA kits, purchased from R & D Systems Europe (Abingdon, UK), were used to quantitate murine plasma levels of TNFα, IL-1β, IL-6 and IL-10. […] A sensitive and specific radioimmunoassay to quantitate plasma levels of murine FPA was performed as previously reported^24.
Lipopolysaccharide (LPS) from Escherichia coli serotype 0111:B4 (Sigma) was injected intraperitoneally into 10-12 week old mice. For lethality studies, animals were closely monitored each day until either recovery or cessation of breathing. […]

[2] = test system: TM^LeD/LeD endothelial cells; assay: Static adhesion assay: murine PMNs on endothelial cells from TM^LeD/LeD mice; assay type: cell-based; conditions: for PMN Adhesion (# per 15 HPFs): PMNs from wild-type mice
Protocol: Constitutive levels of circulating soluble TM, composed of proteolytic components of the extracellular domains, are found in the plasma of normal individuals, while quantitative changes occur in different disease states. Purified recombinant TMlec155 was prepared using the Pichia pastoris expression system, and further purified by a series of chromatographic steps as detailed in the methods. In a static adhesion assay on TM^Led/Led endothelial cells, PMNs were co-incubated with TMlec155 at two concentrations. Adhesion of PMNs to the resting endothelial cells was, as before, increased as compared with adhesion to wild-type endothelial cells (Table 9). […] The degree of suppression of adhesion was almost to the level of adhesion to wild-type endothelial cells. […] The role of recombinant TMlec155 in vivo was tested by injecting wild-type mice with LPS 20 μg/gm i.p., followed 5 minutes later with an intravenous bolus of recombinant TMlec155 or buffer alone. After a further 3 hours, the serum cytokine response was determined.
Endothelial tumors were induced to grow in 7 day old mice following intraperitoneal (i.p.) injection of retrovirus carrying the middle T antigen of murine Polyomavirus (PymT). After 10-14 days, the tumors were excised, and endothelial cells were isolated^32.33. Primary cultures of lymphatic endothelial cells were isolated from intraperitoneal lymphangiomas, growth of which was induced by injection of incomplete Freund's adjuvant exactly as described^34. Cells were cultured on collagen or gelatin coated plates in M199 media supplemented with 20% fetal bovine serum, porcine heparin 0.1 mg/ml, endothelial cell mitogen 5 μg/ml (Biomedical Technologies Inc., Stoughton, Mass.), 100 μg/ml penicillin and streptomycin 100 μg/ml. Cell cultures were incubated at 37° C. in a humidified atmosphere of 5% CO2 and 95% air, and experiments were performed at passage 3-8. Over 95% of the cells immuno-stained positively for TM and vWF, confirming the endothelial origin and purity.
Neutrophils and lymphocytes were isolated from bone marrow according to the method of Lowell and Berton ^35. Each population was assessed to be over 95% pure by microscopic analysis after Wright staining.
Endothelial cells were plated in 24-well dishes and grown to confluence. Following 2 washes of the cell monolayers with HBSS, freshly prepared BCECF-AM-labeled, neutrophils derived from human peripheral blood, or murine bone marrow-derived PMNs or lymphocytes 50,000 per well, were added in a final volume of 1 ml for 30 minutes at room temperature. The media was decanted and the cell monolayers were gently washed three times with HBSS after which the adherent fluorescently labeled leukocytes were counted with an inverted epiflourescence microscope as described above.

pERK1/2 and NFκB = assay: TNFα-induced pERK1/2 and NFκB in HUVECs; assay type: cell-based, human; conditions: TNFα 200 U/ml for 20 minutes
Protocol: We predicted that soluble lectin-like domain of TM would suppress PMN adhesion by altering regulation of MAP kinase pathways in ECs. Therefore, HUVECs were exposed to TNFα (200 U/ml) for 20 minutes. […] Total ERK1/2 levels remained unchanged.

Molecule | effect on the results of the adhesion assays [1] | cells rescued from serum starvation-induced cell death (HUVECs; 1 μg/ml) | cells rescued from serum starvation-induced cell death (HUVECs; 10 μg/ml) | cells rescued from serum starvation-induced cell death (HUVECs; 20 μg/ml) | IL-1β levels (effect in words) (IL-1β; i.v. bolus 5 minutes later, 3 hours, compared with control) | IL-1β (IL-1β; treatment i.v. bolus 5 min later, plasma 3 hours later) | PMN Adhesion (# per 15 HPFs) ([2]; TM^LeD/LeD + TNF endothelial cells, recombinant TMlec155 3.6 mg) | PMN Adhesion (# per 15 HPFs) ([2]; TM^LeD/LeD + TNF endothelial cells, recombinant TMlec155 7.2 mg) | PMN Adhesion (# per 15 HPFs) ([2]; resting TM^LeD/LeD endothelial cells, recombinant TMlec155 3.6 mg) | PMN Adhesion (# per 15 HPFs) ([2]; resting TM^LeD/LeD endothelial cells, recombinant TMlec155 7.2 mg) | Adhesion of PMNs to TNFα-activated TM^Led/Led endothelial cells (effect in words) ([2]; static adhesion assay, PMNs co-incubated with TMlec155) | Adhesion of PMNs to resting TM^Led/Led endothelial cells (effect in words) ([2]; static adhesion assay, PMNs co-incubated with TMlec155 at two concentrations) | Accumulation of NFκB (pERK1/2 and NFκB) | Accumulation of pERK1/2 (pERK1/2 and NFκB)
NC(N)=NCCC[C@H](NC(=O)[C@@H]1CCCN1C(=O)[C@H](N)Cc1ccccc1)C(=O)CCl [PPACK] | no effect | – | – | – | – | – | – | – | – | – | – | – | – | –
B1 | – | 2±0.6% | 18±7% | 34±14% | significantly suppressed | 286 ± 75 ng/mL | 132 ± 90 # per 15 HPFs | 153 ± 106 # per 15 HPFs | 15 ± 6 # per 15 HPFs | 12 ± 7 # per 15 HPFs | significantly reduced | significantly decreased; also recorded: abrogated; also recorded: significant decrease in adhesion | similarly interfered | similarly interfered
